Results from PMC12521702 (2025).

B1: ACE2 (M)-Fc-TNFR2 (Fc fusion)
chain: QSTIEEQAKFFLDYFNHEAEDLFYQSSLASWNYNTNITEENVQNMNNAGDKWSAFLKEQSTWAQMYPLQEIQNLTVKLQLQALQQNGSSVLSEDKSKRLNTILNTMSTIYSTGKVCNPDNPQECLLLEPGLNEIMANSLDYNERLWAWESWRSEVGKQLRPLYEEYVVLKNEMARANHYEDYGDYWRGDYEVNGVDGYDYSRGQLIEDVEHTFEEIKPLYEHLHAYVRAKLMNAYPSYISPIGCLPAHLLGDMWGQFWTNLYSLTVPFGQKPNIDVTDAMVDQAWDAQRIFKEAEKFFVSVGLPNMTQGFWEYSMLTDPGNVQKAVCHPTAWDLGKGDFRILMCTKVTMDDFLTAHHEMGHIQYDMAYAAQPFLLRNGANEGFHEAVGEIMSLSAATPKHLKSIGLLSPDFQEDNETEINFLLKQALTIVGTLPFTYMLEKWRWMVFKGEIPKDQWMKKWWEMKREIVGVVEPVPHDETYCDPASLFHVSNDYSFIRYYTRTLYQFQFQEALCQAAKHEGPLHKCDISNSTEAGQKLFNMLRLGKSEPWTLALENVVGAKNMNVRPLLNYFEPLFTWLKDQNKNSFVGWSTDWSPYADQSIKVRISLKSALGDKAYEWNDNEMYLFRSSVAYAMRQYFLKVKNQMILFGEEDVRVANLKPRISFNFFVTAPKNVSDIIPRTEVEKAIRMSRSRINDAFRLNDNSLEFLGIQPTLGPPNQPPVSGGGGSGGGGSGGGGSLPAQVAFTPYAPEPGSTCRLREYYDQTAQMCCSKCSPGQHAKVFCTKTSDTVCDSCEDSTYTQLWNWVPECLSCGSRCSSDQVETQACTREQNRICTCRPGWYCALSKQEGCRLCAPLRKCRPGFGVARPGTETSDVVCKPCAPGTFSNTTSSTDICRPHQICNVVAIPGNASMDAVCTSTSPTRSMAPGAVHLPQPVSTRSQHTQPTPEPSTAPSTSFLLPMGPSPPAEGSTGD
B2: TNFR2-Fc (Fc fusion)
chain: LPAQVAFTPYAPEPGSTCRLREYYDQTAQMCCSKCSPGQHAKVFCTKTSDTVCDSCEDSTYTQLWNWVPECLSCGSRCSSDQVETQACTREQNRICTCRPGWYCALSKQEGCRLCAPLRKCRPGFGVARPGTETSDVVCKPCAPGTFSNTTSSTDICRPHQICNVVAIPGNASMDAVCTSTSPTRSMAPGAVHLPQPVSTRSQHTQPTPEPSTAPSTSFLLPMGPSPPAEGSTGDFALPVGLIVGVTALGLLIIGVVNCVIMTQVKKKPLCLQREAKVPHLPADKARGTQGPEQQHLLITAPSSSSSSLESSASALDRRAPTRNQPQAPGVEASGAGEARASTGSSDSSPGGHGTQVNVTCIVNVCSSSDHSSQCSSQASSTMGDTDSSPSESPKDEQVPFSKEECAFRSQLETPETLLGSTEEKPLPLGVPDAGMKPS
B3: ACE2 (M)-Fc (Fc fusion)
chain: QSTIEEQAKFFLDYFNHEAEDLFYQSSLASWNYNTNITEENVQNMNNAGDKWSAFLKEQSTWAQMYPLQEIQNLTVKLQLQALQQNGSSVLSEDKSKRLNTILNTMSTIYSTGKVCNPDNPQECLLLEPGLNEIMANSLDYNERLWAWESWRSEVGKQLRPLYEEYVVLKNEMARANHYEDYGDYWRGDYEVNGVDGYDYSRGQLIEDVEHTFEEIKPLYEHLHAYVRAKLMNAYPSYISPIGCLPAHLLGDMWGQFWTNLYSLTVPFGQKPNIDVTDAMVDQAWDAQRIFKEAEKFFVSVGLPNMTQGFWEYSMLTDPGNVQKAVCHPTAWDLGKGDFRILMCTKVTMDDFLTAHHEMGHIQYDMAYAAQPFLLRNGANEGFHEAVGEIMSLSAATPKHLKSIGLLSPDFQEDNETEINFLLKQALTIVGTLPFTYMLEKWRWMVFKGEIPKDQWMKKWWEMKREIVGVVEPVPHDETYCDPASLFHVSNDYSFIRYYTRTLYQFQFQEALCQAAKHEGPLHKCDISNSTEAGQKLFNMLRLGKSEPWTLALENVVGAKNMNVRPLLNYFEPLFTWLKDQNKNSFVGWSTDWSPYADQSIKVRISLKSALGDKAYEWNDNEMYLFRSSVAYAMRQYFLKVKNQMILFGEEDVRVANLKPRISFNFFVTAPKNVSDIIPRTEVEKAIRMSRSRINDAFRLNDNSLEFLGIQPTLGPPNQPPVS

What was measured:
[1] = target: SARS-CoV-2 prototype (PT) RBD (SARS-CoV-2, UniProt P0DTC2); assay: SPR
[2] = target: TNF (human, UniProt P01375); assay: SPR
Sequence of TNF (P01375 77-233): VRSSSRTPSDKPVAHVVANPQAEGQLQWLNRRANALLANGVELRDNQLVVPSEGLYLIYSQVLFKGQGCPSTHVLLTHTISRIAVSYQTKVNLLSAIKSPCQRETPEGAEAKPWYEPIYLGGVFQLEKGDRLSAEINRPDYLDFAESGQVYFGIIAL

Binder | Kd [1] | Kd [2]
B1 | 258 pM | –
B2 | – | 41.8 pM
B3 | 274 pM | –
